One series concerns diabetogenic mice. Nature of the series: In vivo delivery efficiency test: plasma glucose levels in diabetogenic mice. The following applies: 0.2 IU insulin, subcutaneous injection. Here is the method: In this experiment, male C57BL/6 mice (7 to 8 week-old, OrientBio) were used. Animal experiments were conducted according to the Guide for the Care and Use of Laboratory Animals by the Severance Hospital Ethics Committee (Reference No.: 09-013, College of Pharmacy, Yonsei University, Korea). […] For successful diabetes induction, the blood glucose concentrations of all the mice were measured using a OneTouch Verio IQ system. […] Diabetogenic mice were divided into four groups, as follows: (a) an untreated group (a negative control); (b) a subcutaneously injected group (0.2 IU, a positive control); […] The mice were fasted during an experiment period, and freely fed with water. […] After 6 hours of the treatment, blood samples (0.1 ml) were taken from wounded tail vein areas every one hour. […] The plasma glucose levels per hour in each group were measured using a glucose CII-Test kit. The plasma insulin concentrations were measured using an insulin ELISA kit (ALPCO). To examine the in vivo delivery efficiency by DMN patch and subcutaneous injection (SC) methods and through the microlancer, insulin was administered to diabetogenic mice using each of the methods, and changes in blood glucose levels were measured. […] Insulin was administered using each of the methods, and changes in plasma glucose levels in the diabetogenic mice were measured after the elapse of 6 hours (see FIG. 17B).

Series [1] is described as follows: In vivo delivery efficiency test: plasma insulin concentrations in diabetogenic mice. The following applies: 0.2 IU insulin, subcutaneous injection. As for the experimental part:
In this experiment, male C57BL/6 mice (7 to 8 week-old, OrientBio) were used. Animal experiments were conducted according to the Guide for the Care and Use of Laboratory Animals by the Severance Hospital Ethics Committee (Reference No.: 09-013, College of Pharmacy, Yonsei University, Korea). The mice were anesthetized with Avertin (2,2,2-tribromoethanol, Sigma-Aldrich), and 50 mg/kg of streptozotocin in a sodium citrate buffer (pH=4.5) was intravenously injected into the mice to induce diabetes. For successful diabetes induction, the blood glucose concentrations of all the mice were measured using a OneTouch Verio IQ system.
Diabetogenic mice were divided into four groups, as follows: (a) an untreated group (a negative control); (b) a subcutaneously injected group (0.2 IU, a positive control); (c) a patch-treated group (0.2 IU insulin-loaded DMNs); and (d) a microlancer-treated group (0.2 IU insulin-loaded DMNs) (n=5 per group). The mice were fasted during an experiment period, and freely fed with water. The back regions of the mice were shaved using an electric shaver, and 0.2 IU of insulin was administered by means of a DMN patch through a microlancer or by subcutaneous injection. […] The plasma glucose levels per hour in each group were measured using a glucose CII-Test kit. The plasma insulin concentrations were measured using an insulin ELISA kit (ALPCO).

The record followed here is patent US10737081B2, “Painless and patchless shooting microstructure” (JUVIC INC., priority 2013, dated 2020).

Turning to “insulin: Humalog insulin purchased from Eli Lilly; 0.2 IU subcutaneously injected as positive control”, the “time of lowest blood glucose level compared to insertion through the microlancer” value with diabetogenic mice is “an hour earlier”. Moreover, in series [1], the “maximum plasma insulin concentration” value is listed as 156 μIU/ml and the “time of peaks for the plasma insulin concentration” value is “an hour”.
